Assay [1] concerns the target HLA-A*01:01. Put plainly: IEDB peptide-MHC binding, purified MHC/competitive/fluorescence; filed as Kd, often an IC50 or EC50 that approximates it; ≥ and ≤ were set here for values at or beyond the usual limits of such assays. The following applies: source organism: Shigella boydii CDC 3083-94.
Assay [2] deals with HLA-B*15:01. The description is as above.
Assay [3] addresses HLA-B*58:01. The description is as above.
Assay [4] concerns the target HLA-A*02:01. The assay is described as above.
For assay [5], the target named is HLA-A*02:03. The description is as above.
In assay [6] the target is HLA-A*02:12. Described as above.
The target of assay [7] is HLA-A*02:16. Described as above.
Assay [8] deals with HLA-A*02:19. Described as above.
The target of assay [9] is HLA-A*23:01. Described as above.
Assay [10] concerns the target HLA-A*24:03. The description is as above.
Assay [11] has as its target HLA-A*26:01. The assay is described as above.
The target of assay [12] is HLA-A*68:02. The description is as above.
Assay [13] concerns the target HLA-A*69:01. The description is as above.
For assay [14], the target named is HLA-B*15:17. The description is as above.
Assay [15] deals with HLA-B*18:01. The description is as above.
In assay [16] the target is HLA-B*27:03. The assay is described as above.
Assay [17] deals with HLA-B*39:01. The assay is described as above.
Assay [18] concerns the target HLA-B*46:01. Described as above.
Assay [19] deals with HLA-B*51:01. The assay is described as above.
For assay [20], the target named is HLA-B*57:01. Described as above.
Assay [21] addresses HLA-A*03:01. The description is as above.
Assay [22] concerns the target HLA-A*02:01. The experiment in a line: IEDB peptide-MHC binding, purified MHC/competitive/fluorescence; ≥ and ≤ were set here for values at or beyond the usual limits of such assays.
For assay [23], the target named is HLA-A*24:02. The assay is described as above.
Assay [24] has as its target HLA-B*07:02. The assay is described as above.
Assay [25] has as its target HLA-B*15:01. Described as above.
Assay [26] addresses HLA-A*11:01. The experiment in a line: IEDB peptide-MHC binding, purified MHC/direct/fluorescence; filed as Kd, often an IC50 or EC50 that approximates it; ≥ and ≤ were set here for values at or beyond the usual limits of such assays.
Assay [27] concerns the target HLA-A*31:01. The experiment in a line: IEDB peptide-MHC binding, purified MHC/competitive/fluorescence; filed as Kd, often an IC50 or EC50 that approximates it; ≥ and ≤ were set here for values at or beyond the usual limits of such assays.
In assay [28] the target is HLA-A*02:11. Described as above.
Assay [29] has as its target HLA-A*29:02. The assay is described as above.
Assay [30] has as its target HLA-A*03:01. The experiment in a line: IEDB peptide-MHC binding, purified MHC/direct/fluorescence; filed as Kd, often an IC50 or EC50 that approximates it; ≥ and ≤ were set here for values at or beyond the usual limits of such assays.
Assay [31] addresses HLA-B*15:42. The experiment in a line: IEDB peptide-MHC binding, purified MHC/competitive/fluorescence; filed as Kd, often an IC50 or EC50 that approximates it; ≥ and ≤ were set here for values at or beyond the usual limits of such assays. The settings on record: source organism: Rickettsia typhi str. Wilmington.
Assay [32] concerns the target HLA-B*45:06. Described as above. The settings on record: source organism: Rickettsia typhi str. Wilmington.
Assay [33] has as its target HLA-B*83:01. The description is as above. The following applies: source organism: Rickettsia typhi str. Wilmington.
The target of assay [34] is HLA-B*15:03. The experiment in a line: IEDB peptide-MHC binding, purified MHC/competitive/radioactivity; filed as Kd, often an IC50 or EC50 that approximates it; ≥ and ≤ were set here for values at or beyond the usual limits of such assays. The settings on record: source organism: Vaccinia virus WR.
The mark [35] stands for this setting: source organism: Shigella boydii CDC 3083-94.
Setting [36] is: source organism: Burkholderia pseudomallei K96243.
Where [37] appears, read: source organism: Sudan ebolavirus.
Where [38] appears, read: source organism: dengue virus type 4.
[39] abbreviates: source organism: Bacillus anthracis str. 'Ames Ancestor'.
The mark [40] stands for this setting: source organism: Escherichia coli 101-1.
Setting [41] is: source organism: Zaire ebolavirus.
Setting [42] is: source organism: Rickettsia typhi str. Wilmington.
[43] abbreviates: source organism: Rickettsia typhi.
The mark [44] stands for this setting: source organism: Vaccinia virus.
[45] abbreviates: source organism: Burkholderia mallei.

Consider 15 sequences from the Immune Epitope Database (IEDB).

Bounds are passed on as bounds.

One may read the Kd as the free concentration of one partner at which half of the binding sites on the other are occupied at equilibrium, for simple one-to-one binding. Take HSETVIHRY: the figures for the Kd in assay [1], in assay [2] (setting [35]) and in assay [3] (setting [35]) were 0.0144 µM, 3 µM and at least 20 µM, respectively.
With RNNDPTLPY, the Kd in assay [4] (setting [35]), in [5] (setting [35]), in [6] (setting [35]), in assay [7] (setting [35]), in assay [8] (setting [35]) and in assay [9] (setting [35]) was at least 20 µM in each case. For the same sequence, the Kd in [10] (setting [35]), in assay [11] (setting [35]), in assay [12] (setting [35]), in assay [13] (setting [35]), in [14] (setting [35]) and in assay [15] (setting [35]) was at least 20 µM throughout. Besides, the Kd in [16] (setting [35]), in [17] (setting [35]), in assay [18] (setting [35]), in [19] (setting [35]) and in assay [20] (setting [35]) was at least 20 µM throughout.
Sequence LKASGRYQW returned a dissociation constant Kd in assay [3] (source organism: Escherichia coli O139:H28 str. E24377A) of 0.879 µM.
On to DELWRGLLA, for which the Kd in [4] (setting [36]), in assay [5] (setting [36]), in [6] (setting [36]), in [7] (setting [36]), in assay [8] (setting [36]) and in assay [21] (setting [36]) was at least 20 µM in each case. Also, the Kd in assay [9] (setting [36]) is at least 20 µM; in assay [10] (setting [36]), at least 20 µM; in [11] (setting [36]), at least 20 µM; in assay [12] (setting [36]) it was at least 20 µM; in [2] (setting [36]), at least 20 µM; in assay [15] (setting [36]), 0.0813 µM. The Kd in [16] (setting [36]), in assay [17] (setting [36]), in assay [18] (setting [36]), in assay [19] (setting [36]) and in assay [20] (setting [36]) was at least 20 µM in each case.
A word on the IC50: it is the concentration that gives 50% inhibition. Read a low IC50 as greater potency in that assay. With FQKAFSMPL, the IC50 in assay [22] (setting [37]) is 0.784 µM; in assay [23] (setting [37]), 27.5 µM; in assay [24] (setting [37]), 16 µM; in assay [25] (setting [37]), 2.11 µM.
With VVTLIPLCR, the Kd in assay [26] (setting [38]) is 0.454 µM; in assay [27] (setting [38]), 0.0301 µM.
On to MTQNISNDK, for which the Kd in [4] (setting [39]), in assay [5] (setting [39]), in assay [28] (setting [39]), in assay [6] (setting [39]), in assay [7] (setting [39]) and in assay [8] (setting [39]) was at least 20 µM throughout. Further, the Kd was 6 µM in assay [21] (setting [39]); at least 20 µM in assay [10] (setting [39]); at least 20 µM in [11] (setting [39]); at least 20 µM in assay [29] (setting [39]); at least 20 µM in [12] (setting [39]); at least 20 µM in assay [13] (setting [39]). The Kd in [2] (setting [39]), in assay [14] (setting [39]), in [15] (setting [39]), in assay [16] (setting [39]), in assay [17] (setting [39]) and in assay [18] (setting [39]) was at least 20 µM in each case. For the same sequence, the Kd in assay [19] (setting [39]) and in assay [20] (setting [39]) was at least 20 µM each time.
Turning to GTKAWVMNR, the results for the Kd in [21] (setting [40]) and in assay [27] (setting [40]) were 4.5 µM and 0.0033 µM, respectively.
LLQRWGGTC: the IC50 in [22] (setting [41]) is 2.49 µM; in assay [24] (setting [41]), at least 473 µM; in [25] (setting [41]), 41.3 µM.
Regarding QLEVRSTEV, the Kd is at least 20 µM in assay [4] (setting [42]); at least 20 µM in assay [28] (setting [42]); 0.43 µM in assay [6] (setting [42]); at least 20 µM in assay [7] (setting [42]); at least 20 µM in [21] (setting [42]); at least 20 µM in [9] (setting [42]). Further, the Kd in assay [10] (setting [42]), in assay [11] (setting [42]), in assay [29] (setting [42]), in [2] (setting [42]), in [14] (setting [42]) and in [15] (setting [42]) was at least 20 µM each time. Besides, the Kd in assay [16] (setting [42]), in assay [17] (setting [42]), in [18] (setting [42]), in assay [19] (setting [42]) and in assay [20] (setting [42]) was at least 20 µM in each case.
In the case of LTIPTIMGR, the Kd in assay [30] (setting [43]) was 0.93 µM; in assay [26] (setting [43]), 0.003 µM; in [27] (setting [42]) it was 0.00255 µM; in assay [31], at least 5 µM; in [32], at least 5 µM; in [33], at least 5 µM.
Sequence KGIHPQNHL returned a Kd in [3] (source organism: Escherichia coli) of at least 20 µM.
For FANPLSNPF, the IC50 in assay [22] (setting [44]) is 2.53 µM; in [23] (setting [44]), 2.78 µM; in assay [24] (setting [44]) it was 69.1 µM; in assay [25] (setting [44]) it was 5.74 µM. Further, the Kd in assay [34] is 0.00192 µM.
On to LTQRRTTPR, for which the Kd in assay [30] (setting [45]) was 1.86 µM; in assay [26] (setting [45]), 0.0526 µM; in assay [27] (source organism: Burkholderia mallei FMH) it was 0.0131 µM.
In [3] (source organism: Yersinia pestis Nepal516), RSSKLVMRY came in with a Kd of 0.0183 µM.
